The text below walks through data of publication PMC11605450, “Azotobacter vinelandii scaffold protein NifU transfers iron to NifQ as part of the iron-molybdenum cofactor biosynthesis pathway for nitrogenase” (The Journal of Biological Chemistry, 2024).

The target of assay [1] is apo-NifQH (A. vinelandii NifQ, C-terminal 6xHis, without [Fe-S] cluster) (A. vinelandii) (UniProt P11068). Put plainly: pull-down; apo-NifQH, AS-NifUS and SNifS (10 nmol of each) incubated together 5 min, anaerobic, buffer W (100 mM Tris-HCl pH 8.0, 150 mM NaCl, 10% glycerol); Ni-NTA agarose column, washes with 5 and 20 mM imidazole, elution with 150 mM imidazole; immunoblots. (A western blot detects proteins with antibodies after separation by electrophoresis.)

Assay [2] has as its target R-NifUS (A. vinelandii NifU, C-terminal Strep-tag, with in vitro reconstituted [Fe-S] clusters) (A. vinelandii) (UniProt P05340).
The target in assay [3] is T1, apo-NifQH (A. vinelandii NifQ, C-terminal 6xHis, without [Fe-S] cluster) (A. vinelandii, UniProt P11068 1-195).
T1 construct: Purified aerobically to destroy the [Fe-S] clusters; source: E. coli BL21 (DE3), purified (Ni-NTA, aerobic conditions); not shown: His6, C-terminal, kept
T1 sequence (looked up): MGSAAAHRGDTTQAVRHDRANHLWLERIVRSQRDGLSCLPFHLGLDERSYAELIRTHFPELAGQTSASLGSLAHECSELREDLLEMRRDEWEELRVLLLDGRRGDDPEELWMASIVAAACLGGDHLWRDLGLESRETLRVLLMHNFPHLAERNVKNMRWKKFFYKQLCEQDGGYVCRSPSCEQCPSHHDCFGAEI
Kind of assay: pull-down; 10 nmol of Strep-tagged bait (AS-NifUS or R-IscUS) immobilised on a Streptactin-XT column in anaerobic buffer A (50 mM Tris-HCl pH 8.0, 100 mM NaCl, 10% glycerol), 10 nmol NifQH loaded onto the charged column, washed, eluted with 50 mM biotin. The note with it: both partners purified.

R-NifUS (A. vinelandii NifU, C-terminal Strep-tag, with in vitro reconstituted [Fe-S] clusters) (A. vinelandii), sequence (P05340 whole entry): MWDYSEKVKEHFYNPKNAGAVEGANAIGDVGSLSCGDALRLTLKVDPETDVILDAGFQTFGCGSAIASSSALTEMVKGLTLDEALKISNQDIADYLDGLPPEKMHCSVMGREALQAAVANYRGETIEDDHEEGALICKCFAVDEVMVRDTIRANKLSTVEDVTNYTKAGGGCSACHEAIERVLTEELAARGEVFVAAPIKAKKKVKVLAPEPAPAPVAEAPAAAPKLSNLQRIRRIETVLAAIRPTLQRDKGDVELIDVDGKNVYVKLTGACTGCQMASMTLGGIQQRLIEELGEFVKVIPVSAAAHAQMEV

Regarding “AS-NifUS (as-isolated A. vinelandii NifU, C-terminal Strep-tag) (from UniProt P05340 1-312) (natural protein)”, in assay [1], the percent of the total protein co-eluted is 10%.

As to “apo-NifQH (A. vinelandii NifQ, C-terminal 6xHis, without [Fe-S] cluster) (from UniProt P11068 1-195) (natural protein)”, the iron content per monomer of NifQH in the flowthrough of a Strep-tactin column after 5 min incubation of apo-NifQH with R-NifUS (Fe per NifQH monomer (molar ratio)) in assay [2] came out at 1.

B1: R-IscUS (A. vinelandii IscU, Strep-tag, with in vitro reconstituted [Fe-S] clusters) (natural protein, UniProt O31270 1-128, looked up)
chain: MAYSDKVIDHYENPRNVGKLDAQDPDVGTGMVGAPACGDVMRLQIKVNEQGIIEDAKFKTYGCGSAIASSSLATEWMKGRTLEEAETIKNTQIAEELALPPVKIHCSVLAEDAIKAAVRDYKHKKGLV
notes: also called R-SIscU; source: E. coli BL21 (DE3), purified (Strep-Tactin XT, anaerobic), [Fe-S] clusters reconstituted in vitro; not shown: Strep-tag, C-terminal, kept
As for B1, in assay [3], the binding result is “binds”.
